# Settings: Dictyostelium discoideum, reversible: yes
# [1] = pH 5.59, 20 °C, Thermal, DSC, MES/NaMES 50 mM
# [2] = pH 5.7, 20 °C, Urea, CD, KH2PO4/K2HPO4 50 mM
# [3] = pH 5.7, 20 °C, Urea, CD, MES 50 mM
# [4] = pH 5.7, 20 °C, Urea, Fluorescence, MES 50 mM
# [5] = pH 5.75, 20 °C, Thermal, DSC, MES/NaMES 50 mM
# [6] = pH 5.81, 20 °C, Thermal, DSC, MES/NaMES 50 mM
# [7] = pH 6.03, 20 °C, Thermal, DSC, MES/NaMES 50 mM
# [8] = pH 6.09, 20 °C, Thermal, DSC, MES/NaMES 50 mM
# [9] = pH 6.2, 20 °C, Urea, Fluorescence, MES 50 mM, NaCl 400 mM
# [10] = pH 6.2, 20 °C, Urea, Fluorescence, MES 50 mM
# [11] = pH 6.25, 20 °C, Thermal, DSC, MES/NaMES 50 mM
# [12] = pH 6.7, 20 °C, Urea, CD, KH2PO4/K2HPO4 50 mM
# [13] = pH 6.7, 20 °C, Urea, Fluorescence, KH2PO4/K2HPO4 50 mM
# [14] = pH 7.08, 5 °C, Urea, Fluorescence, KH2PO4/K2HPO4 50 mM
# [15] = pH 7.7, 20 °C, Urea, CD, KH2PO4/K2HPO4 50 mM
# [16] = pH 7.7, 20 °C, Urea, Fluorescence, KH2PO4/K2HPO4 50 mM
# [17] = pH 8.15, 20 °C, Urea, Fluorescence, KH2PO4/K2HPO4 50 mM
# [18] = pH 8.7, 20 °C, Urea, CD, Glycine/sodium glycine 50 mM
# [19] = pH 8.7, 20 °C, Urea, Fluorescence, Glycine/sodium glycine 50 mM
# [20] = pH 9.7, 20 °C, Urea, CD, Glycine/sodium glycine 50 mM
# [21] = pH 9.7, 20 °C, Urea, Fluorescence, Glycine/sodium glycine 50 mM
# Chain of Hisactophilin-1 wild type (P13231 whole entry, looked up): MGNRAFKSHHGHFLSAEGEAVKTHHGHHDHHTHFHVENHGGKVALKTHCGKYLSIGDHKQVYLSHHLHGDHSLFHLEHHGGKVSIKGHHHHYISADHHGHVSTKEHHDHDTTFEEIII
substance,measurement,setting,value
Hisactophilin-1 wild type (from UniProt P13231),heat capacity change of unfolding,[1],2.4 kcal/mol/K
same,unfolding free energy,[1],1.5 kcal/mol
same,Tm,"pH 5.59, Thermal, DSC, MES/NaMES 50 mM",47 °C
same,denaturant m value,[2],2.24 kcal/mol/M
same,denaturant midpoint (higher = more stable),[2],1.02 M
same,unfolding free energy,[2],2.28 kcal/mol
same,denaturant m value,[3],2.19 kcal/mol/M
same,denaturant midpoint (higher = more stable),[3],1.05 M
same,unfolding free energy,[3],2.2 kcal/mol
same,denaturant m value,[4],2.2 kcal/mol/M
same,denaturant midpoint (higher = more stable),[4],0.99 M
same,unfolding free energy,[4],2.18 kcal/mol
same,heat capacity change of unfolding,[5],2.4 kcal/mol/K
same,unfolding free energy,[5],1.4 kcal/mol
same,Tm,"pH 5.75, Thermal, DSC, MES/NaMES 50 mM",48.9 °C
same,heat capacity change of unfolding,[6],2.4 kcal/mol/K
same,unfolding free energy,[6],2.1 kcal/mol
same,Tm,"pH 5.81, Thermal, DSC, MES/NaMES 50 mM",53.6 °C
same,heat capacity change of unfolding,[7],2.4 kcal/mol/K
same,unfolding free energy,[7],2.8 kcal/mol
same,Tm,"pH 6.03, Thermal, DSC, MES/NaMES 50 mM",58.3 °C
same,heat capacity change of unfolding,[8],2.4 kcal/mol/K
same,unfolding free energy,[8],4.1 kcal/mol
same,Tm,"pH 6.09, Thermal, DSC, MES/NaMES 50 mM",58.7 °C
same,denaturant m value,[9],2.56 kcal/mol/M
same,denaturant midpoint (higher = more stable),[9],1.39 M
same,unfolding free energy,[9],3.56 kcal/mol
same,denaturant m value,[10],2.39 kcal/mol/M
same,denaturant midpoint (higher = more stable),[10],2.23 M
same,unfolding free energy,[10],5.33 kcal/mol
same,heat capacity change of unfolding,[11],2.4 kcal/mol/K
same,unfolding free energy,[11],3.8 kcal/mol
same,Tm,"pH 6.25, Thermal, DSC, MES/NaMES 50 mM",61.7 °C
same,denaturant m value,[12],1.63 kcal/mol/M
same,denaturant midpoint (higher = more stable),[12],3.1 M
same,unfolding free energy,[12],5.04 kcal/mol
same,denaturant m value,[13],1.62 kcal/mol/M
same,denaturant midpoint (higher = more stable),[13],3.08 M
same,unfolding free energy,[13],5.1 kcal/mol
same,denaturant m value,[14],1.67 kcal/mol/M
same,denaturant midpoint (higher = more stable),[14],2 M
same,unfolding free energy,[14],3.34 kcal/mol
same,denaturant m value,[15],1.63 kcal/mol/M
same,denaturant midpoint (higher = more stable),[15],4.31 M
same,unfolding free energy,[15],7.11 kcal/mol
same,denaturant m value,[16],1.59 kcal/mol/M
same,denaturant midpoint (higher = more stable),[16],4.26 M
same,unfolding free energy,[16],6.78 kcal/mol
same,denaturant m value,[17],1.65 kcal/mol/M
same,denaturant midpoint (higher = more stable),[17],4.61 M
same,unfolding free energy,[17],7.59 kcal/mol
same,denaturant m value,[18],1.46 kcal/mol/M
same,denaturant midpoint (higher = more stable),[18],5.18 M
same,unfolding free energy,[18],7.55 kcal/mol
same,denaturant m value,[19],1.49 kcal/mol/M
same,denaturant midpoint (higher = more stable),[19],5.19 M
same,unfolding free energy,[19],7.75 kcal/mol
same,denaturant m value,[20],1.53 kcal/mol/M
same,denaturant midpoint (higher = more stable),[20],4.58 M
same,unfolding free energy,[20],7.03 kcal/mol
same,denaturant m value,[21],1.65 kcal/mol/M
same,denaturant midpoint (higher = more stable),[21],4.76 M
same,unfolding free energy,[21],7.85 kcal/mol
